Source: patent US7521540B2, “CYR61 compositions and methods” (Munin Corporation, priority 1996, dated 2009)

Tests used:
[1] = system: Limb mesenchymal cells; assay: Chondrogenesis, [35S]-sulfate incorporation in micromass cultures; assay type: cell-based, mouse
Procedure: Cell proliferation was assessed by the thymidine assay, described above, and by microscopic cell counts. Chondrogenesis was assessed by quantifying the incorporation of [^35S]-sulfate (ICN Biomedicals, Inc.) into sulfated glycosaminoglycans, and by qualitatively determnining the extent of chondrogenesis by cell staining with Alcian Blue. Cultures, described above, were labeled with 2.5 μCi/ml [^35S]-sulfate for 18 hours, washed twice in PBS, fixed with Kahle's fixative (Pepper et al., J. Cell Sci. 109:73-83 [1995]) and stained for 18 hours in 0.5% Alcian Blue, pH 1.0. The extent of chondrogenesis is correlated with the intensity of Alcian Blue staining. San Antonio et at., Dev. Biol. 115:313-324 (1986).
Chondrogenic differentiation was quantitated by incorporation of […] (ICN) into sulfated glycosaminoglycans and assessed qualitatively by Alcian Blue staining. Cultures were radiolabeled with 2.5 μCi/ml [^35S]-sulfate for 18 hr, fixed with Kahle's fixative and stained with 0.5% Alcian Blue, pH 1.0 (Lev et al., 1964). The extent of chondrogenesis is correlated with the intensity of Alcian Blue staining (San Antonio et al., 1986). [^35S]-Sulfate incorporation in the fixed cell layer was quanititated by liquid scintillation counting.
As shown above in Example 11, anti-Cyr61 antibodies can neutlralize both the cell adhesion and DNA-synthesis enhancement activities of Cyr61. Anti-Cyr61 antibodies were added to the mesenchymal cell culture media or mixed the cell suspension prior to plating. […] These observations were correlated with decreased Alcian Blue staining.

[2] = system: 1064SK primary human foreskin fibroblasts; assay: Fibroblast adhesion assay (methylene blue, A620); assay type: cell-based
Procedure: The ability of Cyr61 to mediate cell adhesion in normal fibroblasts was investigated. Microtiter wells were coated with purified recombinant Cyr61 protein, and 1064SK primary human foreskin fibroblasts were allowed to adhere under serum-free conditions. […] 50 μl cell suspensions were plated on microtiter wells coated with varying concentrations (0.5-5.0 μg/ml) of Cyr61 protein. After incubation at 37° C. for 30 minutes, adherent cells were fixed and stained with methylene blue.
In another experiment, microtiter wells were coated with either BSA, Cyr61 (2 μg/ml), or vitronectin (VN; 0.5 μg/ml) and blocked with affinity-purified anti-Cyr61 antibodies for one hour at 37° C. before 1064SK cells were plated.
The effects of divalent cations in cell adhesion to Cyr61 was also investigated. […] Data are means from triplicate determinations. […] Inhibition by Ca^2+ is characteristic of adhesion through some members of the β1 family of integrins, including receptors that bind type I collagen, laminin, and vitronectin (integrins α2β1, α6β1, and αVβ1) in fibroblasts, as well as the lymphocyte-specific integrin αLβ2.
The effects of RGD peptides on Cyr61-mediated fibroblast binding was tested by plating cells in wells coated with Cyr61 (2 μg/ml). Type I collagen (2 μg/ml) or vitronectin (0.5 μg/ml), 2 mM GRGDSP or GRGESP peptide was then added.
Cells were also pre-incubated with 40 μg/ml monoclonal antibodies against the integrin α5 or the integrin αV subunits at room temperature for 30 minutes, then plated on wells coated with Cyr61 (2 μg/ml), vitronectin (0.5 μg/ml) or fibronectin (FN, 1 μg/ml). […] The data are means, representative of three experiments.
The 1064 SK cells were also analyzed using the monoclonal antibody JBIA, which binds the β1 integrin subunit. Cells were pre-incubated with the antibody (50 μg/ml) before plating on microtiter wells coated with Cyr61 (2 μg/ml), Type I collagen (2 μg/ml), or vitronectin (0.5 μg/ml). […] Data are means, representative of three experiments.
To identify the specific β1 integrin that mediates fibroblast adhesion to Cyr61, the inhibitory effects of function-blocking monoclonal antibodies were tested against various integrin α subunits. […] The data are means, representative of at least three experiments.

[3] = system: macrophages; assay: Macrophage binding, antibody inhibition studies; assay type: cell-based
Excerpt: It is also expected that Cyr61 will promote the migration of macrophages, thus serving a role in attracting and retaining macrophages at the site of a wound. Consequently, Cyr61 is expected to play a role in the inflammatory response of mammals, and modulation of Cyr61 activity is expected to influence the inflammatory response.

[4] = system: Focal Adhesion Kinase; assay: Focal adhesion induction; assay type: cell-based
Excerpt: In addition, Cyr61 induces focal adhesion, i.e., cell surface foci for cytoskeletal attachments. Focal adhesion is effected by cell surface protein complexes or clusters. These protein clusters are complex, including a variety of receptors from the integrin family, and a variety of protein kinases. The induction of focal adhesion by Cyr61 is reflected in the capacity of Cyr61 to induce particular members of these cell surface protein clusters. […] Moreover, indirect immunofluorescence studies have shown that Cyr61 is bound to a receptor (see above) in focal adhesive plaques. The plaques, in turn, are characteristic of focal adhesion protein complexes. Focal Adhesion Kinase, Paxillin, and αVβ3 Integrin are co-localized to the focal adhesion plaques produced by focal adhesion complex formation induced by Cyr61. These focal adhesion protein complexes bind Cyr61 at the cell surface; the complexes also attach internally to the cytoskeleton. Therefore, murine Cyr61, and human Cyr61 (see below), are, in part, adhesion molecules, a characteristic distinguishing Cyr61 from conventional growth factors. […] Subsequently, bound Cyr61 is detected, e.g., by anti-Cyr61 antibody that is labeled using techniques known in the art, such as radiolabelling, fluorescent labeling, or the use of enzymes catalyzing calorimetric reactions. […]

B1: Cyr61: Cysteine-rich ECM signaling protein; murine sequence SEQ ID NO:2, recombinant from Baculovirus-infected Sf9 cells (protein, listed as Mus musculus)
chain: MSSSTFRTLAVAVTLLHLTRLALSTCPAACHCPLEAPKCAPGVGLVRDGCGCCKVCAKQLNEDCSKTQPCDHTKGLECNFGASSTALKGICRAQSEGRPCEYNSRIYQNGESFQPNCKHQCTCIDGAVGCIPLCPQELSLPNLGCPNPRLVKVSGQCCEEWVCDEDSIKDSLDDQDDLLGLDASEVELTRNNELIAIGKGSSLKRLPVFGTEPRVLFNPLHAHGQKCIVQTTSWSQCSKSCGTGISTRVTNDNPECRLVKETRICEVRPCGQPVYSSLKKGKKCSKTKKSPEPVRFTYAGCSSVKKYRPKYCGSCVDGRCCTPLQTRTVKMRFRCEDGEMFSKNVMMIQSCKCNYNCPHPNEASFRLYSLFNDIHKFRD
[1]; 0.3 μg/ml
  increase in [35S]-sulfate incorporation: 1.5 fold
[1]; 5 μg/ml (120 nM)
  increase in [35S]-sulfate incorporation: 3.5 fold
[1]; 10 μg/ml
  cartilage formation: formed a more massive mound of cartilage
[1]; sulfate/cell number ratio
  increase in normalized sulfate incorporation over control: approximately 2 fold
[2]
  coating concentration at which maximal adhesion was reached: 1 µg/mL
[2]; anti-α6 20 μg/ml
  inhibition by anti-α6 antibody of binding mediated by the coated protein: 78%
[2]; coating 0.5 μg/ml
  1064SK adhesion, absorbance: about 0.3 A620
[2]; coating 1-5 μg/ml
  1064SK adhesion, absorbance: 0.45-0.55 A620
[2]; protein coated on wells
  support of 1064SK fibroblast adhesion: dose-dependent and saturable
[3]
  binding to macrophages: binds to macrophages via yet another integrin, the αMβ2 integrin
[4]
  phosphorylation of focal adhesion proteins: induces the phosphorylation of Focal Adhesion Kinase
